This is an account of results in patent publication US20240174736A1 (STARMAB BIOLOGICS SUZHOU, published 2024).

Experiment [1] addresses pneumolysin (PLY) recombinant protein (Streptococcus pneumoniae, UniProt Q04IN8 1-471).
In experiment [2] the target is T1, attenuated PLY mut recombinant protein (pneumolysin with alanine 146 deleted) (Streptococcus pneumoniae, UniProt Q04IN8 1-471).
T1 construct: The change is a deletion of A146, not a substitution ('-' under new means deleted); Expressed in E. coli BL21 (DE3) plysS with a C-terminal His tag; also called PLYmut protein; PLY mut antigen; not shown: C-terminal His tag
The experiment can be described thus: ELISA, PLYmut coated at 0.1 µg/well, antibody in 2-fold dilutions, HRP goat anti-human IgG.

B1: 2E5 mouse/human chimeric antibody (2E5HL) (antibody, human IgG1, kappa, V domains shown)
VH: EVKVEESGGGSVQPGGSMKLSCVASGYTFGDNWMNWVRQSPEKGLEWVAEIRLKSNNYATRYAESVKGRFTISRDDSKSSVYLQMNNLRTEDTGIYYCTRTQFITSVVAPFDFWGQGTTLTVSS
VL: not shown
notes: also called 2E5HL human-mouse chimeric antibody; c2E5VHCH/c2E5VLCL
On to B1, for which the EC50 is 0.0171 µg/mL in experiment [1] and 0.0158 µg/mL in experiment [2].

B2: humanized antibody 2E5H3L0 (antibody, human IgG1, kappa, V domains shown)
VH: EVQLVESGGGLVQPGGSLKLSCAASGYTFGDNWMNWVRQASGKGLEWVGEIRLKSNNYATRYAESVKGRFTISRDDSKNTVYLQMNSLKTEDTAVYYCTRTQFITSVVAPFDFWGQGTTVTVSS
VL: not shown
notes: also called 2E5H3L0 humanized antibody; hu2E5VH3CH/hu2E5VL0CL
Take B2: the results for the EC50 in experiment [1] and in experiment [2] were 0.0203 µg/mL and 0.0162 µg/mL, respectively.
